From US10927157B2, “Helix-grafted proteins as inhibitors of disease-relevant protein-protein interactions” (priority 2014, dated 2021) come the findings set out here.

As usually defined, the Tm is the temperature at the midpoint of the melting transition.

Data set [1] deals with HIV-1 IIIB virus. Put plainly: In cellulo HIV-1 infection assay (CEM-GFP cells, flow cytometry). Type of data set: cell-based. A general note: In flow cytometry, cells or beads pass a laser one at a time.
Experimental: The ELMO grafts were tested as potential inhibitors of HIV-1 in cellulo. The validated assay uses a Lymphoblastoid CD4^+ T-cell line with stably integrated EGFP (CEM-GFP) under the control of the HIV-1 long terminal repeat (LTR) promoter. 293T cells are simultaneously transfected with HIV-1 IIIB virus. The infected cells and non-infected cells are mixed together along with the desired inhibitor. If infection succeeds the number of infected GFP^+ cells increases, which can be measured by flow cytometry (FIG. 18). The inhibition of each ELMO construct was determined in a dose depended manner and compared to C34 and T20 (FIG. 19).
Data set [2] has as its target T1, 5-helix (Human immunodeficiency virus type 1 group M subtype B, UniProt P04578, C598G/DEL583-596/DEL601-623/N624G). As to conditions: untagged ligand, E. coli cell lysate, Ni-NTA. As for the experimental part:
Lysate Ni-NTA Pulldown Assay: GLUE-Cpep was cloned into MCS1 of pETDuet-1 using restriction enzymes NcoI and NotI. The 5 helix with a C-terminal His6× tag was cloned into MCS2 of pETDuet-1 using the restriction enzymes NdeI and KpnI. Completed constructs were transformed into BL21s (DE3). Cells containing the co-expressed pair were inoculated and induced as described previously. Cells were spun down and resuspended in lysis buffer (100 mM NaCl, 20 mM Tris pH 7.4, 10 mM (NH4)2SO4), lysed by sonication, and spun down to remove cell debris. Cleared lysate was incubated with 200 μL Ni-NTA agarose resin for 1 hour. Ni-NTA agarose was washed with 8 mL lysis buffer and with 10 mM imidazole. Proteins were eluted with 500 μL lysis buffer containing 400 mM imidazole.

Data set [3] is described as follows: Circular dichroism thermal denaturation at 222 nm. Type of data set: physicochemical. As to conditions: CD 222 nm, Tris buffer pH 7.4, 0 to 90 °C. As for the experimental part:
Circular Dichroism: Proteins were purified as described above. […] Wavelength data are the average of three scans from 250 nm to 200 nm in 1 nm steps at 25° C. Thermal denaturation experiments at 222 nm were run from 0 to 90° C. in two-degree steps at a two-degree/minute rate of increase with one-minute equilibration and data averaging at each temperature. Tm values were obtained from minima of the first derivative of θ versus 1/T plots.

For data set [4], the target named is T1, 5-helix. As to conditions: 50 nM, 25% human serum, 37 °C, 4 or 12 h. As for the experimental part:
Colorimetry was developed using TMB-One substrate and absorbance was measured at 655 nm on a SynergyMx Microplate Reader.

For data set [5] the following is noted: room temperature (~25 °C).
Experimental: Protein Purification: Genes were cloned into pETDuet-1 using restriction enzymes BamHI and PacI, downstream of a His6× tag and transformed into BL21s (DE3). Cells were grown in 2.5 L LB cultures containing 50 μg/mL carbenicillin at 37° C. to OD600=0.5 and induced with 1 mM IPTG at 25° C. overnight. Cells were then collected by centrifugation, resuspended in Tris buffer (20 mM Tris pH 7.4, 100 mM NaCl, 10 mM (NH4)2SO4) and stored at −20° C. Frozen pellets were thawed and sonicated with 1 second pulses for 2 minutes. The lysate was cleared by centrifugation (15,000 rpm 30 min.) and the supernatant was mixed with 1 mL of Ni-NTA agarose resin for 1 hour at 4° C. The resin was collected by centrifugation (4,750 rpm, 10 min.). The resin was sequentially washed with 50 mL of buffer containing 20 mM imidazole, 10 mL buffer containing 50 mM imidazole, and 5 mL buffer containing 100 mM imidazole. […] The proteins were dialyzed against Tris buffer and analyzed for purity by SDS-PAGE shown below. Purified protein concentrations were quantified using Beer's Law at an absorbance of 280 nm, following standard practice (Grimsley, G. R.; Pace, C. N. Current Protocols in Protein Science (2003), 3.1.1-3.1.9).
All proteins were produced recombinantly in a pET vector with a His6× tag. […] Their expression was quantified in mg/L and compared to wtGLUE (FIG. 12A). […]
Data set [6] deals with T1, 5-helix. Type of data set: cell-based, HIV. Further details: N-terminal superpositive GFP tethered to the 5-helix was cloned into pETDuet-1; His6 (N); His6 (C); expressed in transfected cells; host or cells: E. coli BL21 (DE3), pETDuet-1. The note with it: E. coli co-expressing N-spGFP-5-helix and C-spGFP fusion, flow cytometry. As for the experimental part: Split-Superpositive GFP (split-spGFP) Reassembly Assay: Split-spGFP reassembly experiments were performed as previously described (Chapman, A. M.; 3 McNaughton, B. R. Molecular BioSystems 2012, 8, 2036). […] The completed construct was transformed into BL21s (DE3) and the cells were made electrocompetent via standard protocols. Separately, GLUE-Cpep and C-peptide tethered to the C-terminal fragment of superpositive GFP were independently cloned into pBAD using restriction enzymes NcoI and BsrGI. Constructs were electroporated into electrocompetent BL21s (DE3) containing the N-terminal superpositive GFP plasmid, pulsing at 1.8 kV in a 1 mm cuvette. Cells were allowed to recover at 37° C. for 1 hour, and then plated onto agar plates containing carbenicillin and kanamycin. Individual colonies were picked and passaged once, followed by induction at 37° C. with 1 mM IPTG and 0.2% arabinosewhen cultures reached an OD600 of 0.5. After 6 hours, cells were spun down and resuspended in 5 mL PBS. GFP fluorescence was measured by MoFlo Flow Cytometer.

Data set [7] has as its target T1, 5-helix. The note with it: E. coli cell lysate, FLAG-tagged ligand, Ni-NTA plates. As for the experimental part: ELISA: Separately, wt-GLUE, GLUE-Cpep, and the C-peptide were cloned into MCS1 of pETDuet-1 with FLAG tags using restriction enzymes NcoI and NotI. The 5-helix with a C-terminal His6× tag was cloned into MCS2 of pETDuet-1 using restriction enzymes NdeI and KpnI. Completed constructs were transformed into BL21s (DE3). Cells containing the co-expressed pair were inoculated and induced as described previously. Cells were spun down and resuspended in lysis buffer (20 mM Hepes pH 7.5, 100 mM NaCl), lysed by sonication, and spun down to remove cell debris. Cleared lysates were incubated on clear Ni-NTA coated plates for 1 hour at room temperature and washed 4× with 200 μL wash buffer (20 mM Hepes pH 7.5, 150 mM NaCl, 0.05% Tween-20, 0.01 mg/mL BSA). HRP-conjugated mouse anti-DDDDK antibody in LiCor Blocking Buffer was incubated for 1 hour at room temperature, followed by 4×200 μL washes. Colorimetry was developed using TMB-One substrate and absorbance was measured at 655 nm on a SynergyMx Microplate Reader.

“C26-ELMO: shortened C-peptide grafted onto N-terminal helix of ELMO (SEQ ID NO:7) (WMEWDREINNYTSLIHSLIEESQNQQKQQRLNRLVE)”: the “inhibition of HIV-1 infection at 250 nM” value in data set [1] (250 nM) is “some inhibition of infection”. For the same molecule, the “co-purification with His6-tagged 5-helix” value in data set [2] is “could also be purified alongside 5-Helix-His6×”.

B1: GLUE-Cpep: helix-grafted GLUE PH domain displaying gp41 C-peptide on its C-terminal helix (grafted helix SEQ ID NO:3) (protein)
chain: MEYWHYVETTSSGQPLLREGEKDIAIDQSVGLYHGKSKILQRQRGRIFLTSQRIIYIDDAKPTQNSLGLELDDLAYVNYSSGFLTRSPALILFFKDPSSSTEFVQLSFRKSDGVWFSWATEIALYTILIHSLIEESQNQQEKNEQELL
Turning to B1, the Tm in data set [3] is roughly 79 °C. For the same molecule, the “ELISA signal for 5-helix after pre-incubation with human serum” value in data set [4] is given as “remains functional”. Besides, the “solubility and folding in aqueous solution” value in data set [5] is “soluble and well-folded”. The “interaction-dependent GFP reassembly fluorescence” value in data set [6] is on record as “highly fluorescent”. Further, the “ELISA signal / affinity for 5-helix” value in data set [7] was “slightly better affinity than the native C-peptide”. Further, the “co-purification with His6-tagged 5-helix” value in data set [2] is given as “excellent selectivity”.

B2: wtELMO: wild-type form of ELMO (Engulfment and Cell Motility) PTB domain, PDB 2VSZ (protein)
chain: PILELKEKIQPEILELIKQQRLNRLVEGTCFRKLNARRRQDKFWYCRLSPNHKVLHYGDLEESPQGEVPHDSLQDKLPVADIKAVVTGKDCPHMKEKGALKQNKEVLELAFSILYDSNCQLNFIAPDKHEYCIWTDGLNALLGK
Consider B2, for which the “inhibition of HIV-1 infection” value in data set [1] (dose dependent, compared to C34 and T20) was “no inhibitory effect”. Further, in data set [7], the “ELISA signal / affinity for 5-helix” value is reported as “strong ELISA signal”.
